How the values were obtained:
human BTLA(ECD)-HIS = target: T1, human BTLA(ECD)-HIS (human, UniProt Q7Z6A9 31-157); experiment: ELISA, coated BTLA(ECD)-HIS, chemiluminescence (RLU)
T1 construct: extracellular domain; also called recombinant BTLA; not shown: HIS tag

cynomolgus BTLA(ECD)-HIS = target: T2, cynomolgus BTLA(ECD)-HIS (cynomolgus, UniProt A0A2K5W7M7 31-157); experiment: as above
T2 construct: extracellular domain; also called Cyno BTLA; not shown: HIS tag

[1] = target: T3, human BTLA expressed on HEK-293 cells (human, UniProt Q7Z6A9 31-289); experiment: flow cytometry on HEK 293 cells expressing BTLA (MFI)
T3 construct: whole, on cells

[2] = target: T4, cynomolgus BTLA expressed on HEK-293 cells (cynomolgus, UniProt A0A2K5W7M7 31-289); experiment: as above
T4 construct: whole, on cells; also called Cyno BTLA

human BTLA-human Fc = target: T5, human BTLA-human Fc (human, UniProt Q7Z6A9 31-157); experiment: ELISA, inhibition of BTLA-human Fc binding to coated human HVEM-ratIgG2a
T5 construct: not shown: human Fc

cynoBTLA-human Fc = target: T6, cynoBTLA-human Fc (cynomolgus, UniProt A0A2K5W7M7 31-157); experiment: ELISA, inhibition of cynoBTLA-human Fc binding to coated human HVEM-ratIgG2a
T6 construct: also called cynomolgus BTLA; not shown: human Fc

recombinant human BTLA = recombinant human BTLA (human, UniProt Q7Z6A9 31-157, limits assumed); experiment: Bio-Layer Interferometry (Octet), antibody captured by anti-human-Fc (AHC), BTLA in solution, 1:1 fit
[3] = target: T7, cynomolgus BTLA (analyte of Bio-Layer Interferometry) (cynomolgus, UniProt A0A2K5W7M7 31-157); experiment: as above
T7 construct: also called Cyno BTLA
T7 sequence (A0A2K5W7M7 entry or part of it): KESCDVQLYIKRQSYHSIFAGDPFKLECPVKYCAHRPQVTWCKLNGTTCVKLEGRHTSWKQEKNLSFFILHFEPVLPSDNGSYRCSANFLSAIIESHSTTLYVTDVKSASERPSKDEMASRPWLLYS

T4 sequence (A0A2K5W7M7 entry or part of it): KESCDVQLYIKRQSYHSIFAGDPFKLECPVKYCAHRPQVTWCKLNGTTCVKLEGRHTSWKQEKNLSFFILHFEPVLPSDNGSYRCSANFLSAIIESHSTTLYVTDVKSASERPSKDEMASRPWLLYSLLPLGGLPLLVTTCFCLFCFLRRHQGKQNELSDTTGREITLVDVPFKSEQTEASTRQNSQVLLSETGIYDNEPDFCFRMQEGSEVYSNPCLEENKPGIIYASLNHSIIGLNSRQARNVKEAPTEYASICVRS

Binder | EC50 (human BTLA(ECD)-HIS) [nM] | EC50 (cynomolgus BTLA(ECD)-HIS) [nM] | EC50 [1] [nM] | EC50 [2] [nM] | IC50 (human BTLA-human Fc) [nM] | IC50 (cynoBTLA-human Fc) [nM] | Kd (recombinant human BTLA) [nM] | Kd [3] [nM]
anti-BTLA antibody 13-F7A (antibody, V domains shown) VH: EVQLLESGGGLVQPGGSLRLSCAASGFTSSSYGMSWVRQAPGKGLEWVSGISGSGGGTYYADSVKGRFTISRDNSKNTLYLQMNSLRAEDTAVYYCAKGDYYGSGSYPLFDYWGQGTLVTVSS VL: AIQLTQSPSSLSASVGDRVTITCRASQDISSALAWYQQKPGKAPKLLISDASSLESGVPSRFSGSGSGTDFTLTISSLQPEDFATFYCQQFNNYPPTFGPGTKVDIK | 1 | 1 | 1.5 | 2.6 | 2.5 | 1.8 | 5.4 | 3.9
anti-BTLA antibody 16-I20A (antibody, V domains shown, also called 16420A) VH: QVQLQESGPGLVKPSETLSLTCTVSGGSISYYYWSWIRQPPGTGLEWIGYIYYSGSTKYNPSLKRRVTISVDTSKNQFSLKLSSVTAADTAVYYCARIRGDSYGWDFDYWGQGTLVTVSS VL: EIVMTQSPATLSLSPGERATLSCRASQSISNNYLFWYQQKPGQAPRLLIYGASTRATGIPARFSGSGSGTDFTLTISSLQPEDFAVYYCQQDYNFPLTFGGGTKVEIK | 0.7 | 0.8 | 5 | 6.9 | 2.9 | 2.5 | 14.9 | 16.6
anti-BTLA antibody 16-H16A (antibody, V domains shown) VH: QLQLQESGPGLVKPSETLSLTCTVSGDSISSSGYYWGWIRQPPGKGLEWIGSIYYSGSTHYNPSLKSRVTISVDSSKSQFSLKLSSVTAADTAVYCCARHKVDSSGWPLDYWGQGTLVTVSS VL: EIVMTQSPATLSLSPGERATLSCRASQSISSSCLSWYQQKPGQAPRLLIYDTSTRATGIPARFSGSGSGTDFTLTISSLQPEDFAVYYCQQDYNLPLTFGGGTKVEIK | 0.9 | 1.9 | 4.7 | 4.4 | 3 | 2.3 | 13.9 | 4.1
anti-BTLA antibody 8-M23A (antibody, V domains shown) VH: QVQLQESGPGLVKPSETLSLTCTVSGGSISSYYWSWIRQPPGKGLEWIGYIYYSGSTNYNPSLKSRITISVDTSKNQFSLKLSSVTAADTAVYYCARVILYSSGWSFDYWGQGTLVTVSS VL: EIVMTQSPATLSLSPGERATLSCRASQSVSSSYLSWYQQKPGQAPRLLIYGASTRATGIPARFSGSGSGTDFTLTISSLQPEDFAVYYCQQDYNLPLTFGGGTKVEIK | 0.8 | – | – | – | – | – | – | –
anti-BTLA antibody 12-I8A (antibody, V domains shown, also called 12-IBA) VH: QVQLVESGGGVVQPGRSLRLSCAASGFTFSNYGMHWVRQAPGKGLEWVAVIWYNGSNKYYADSVKGRFTISRDNSKNTLYLQMNSLRAEDTAVYYCARDDVVRYFDWPLDYWGQGTLVTVSS VL: AIQMTQSPSSLSASVGDRVTITCRASQGIRNDLGWYQQKPGKAPKVLIYAASSLQSGVPSRFSGSGSGTDFTLTISSLQPEDFATYYCLQDYNYPWTFGQGTKVEIK | 1.4 | 4.2 | 2.9 | 5 | 4.4 | 4.6 | 25.2 | 23.2
